# Reference: PMC4153296, “Mutant Taq DNA polymerases with improved elongation ability as a useful reagent for genetic engineering”
# B1: primed DNA (27mer/49mer) (dsDNA)
# DNA 1: AGCTATGACCATGATTACGAATTGCTT
# DNA 2: AGCTACCATGCCTGCACGAATTAAGCAATTCGTAATCATGGTCATAGCT
# Columns and labels:
# [1] = target: chimeric Taq 10-1 (Thermus aquaticus / environmental DNA chimera) (UniProt P19821); assay: EMSA; conditions: EMSA: 3 nM DNA, 20 mM Tris-HCl pH 8.8, 10 mM NaCl, 5 mM MgCl2, 14 mM 2-mercaptoethanol, 0.1 mg/ml BSA, 5% glycerol, 40 C, 5 min; 1% agarose gel
# chimeric Taq 10-1 (Thermus aquaticus / environmental DNA chimera), sequence (P19821 whole entry, change not shown): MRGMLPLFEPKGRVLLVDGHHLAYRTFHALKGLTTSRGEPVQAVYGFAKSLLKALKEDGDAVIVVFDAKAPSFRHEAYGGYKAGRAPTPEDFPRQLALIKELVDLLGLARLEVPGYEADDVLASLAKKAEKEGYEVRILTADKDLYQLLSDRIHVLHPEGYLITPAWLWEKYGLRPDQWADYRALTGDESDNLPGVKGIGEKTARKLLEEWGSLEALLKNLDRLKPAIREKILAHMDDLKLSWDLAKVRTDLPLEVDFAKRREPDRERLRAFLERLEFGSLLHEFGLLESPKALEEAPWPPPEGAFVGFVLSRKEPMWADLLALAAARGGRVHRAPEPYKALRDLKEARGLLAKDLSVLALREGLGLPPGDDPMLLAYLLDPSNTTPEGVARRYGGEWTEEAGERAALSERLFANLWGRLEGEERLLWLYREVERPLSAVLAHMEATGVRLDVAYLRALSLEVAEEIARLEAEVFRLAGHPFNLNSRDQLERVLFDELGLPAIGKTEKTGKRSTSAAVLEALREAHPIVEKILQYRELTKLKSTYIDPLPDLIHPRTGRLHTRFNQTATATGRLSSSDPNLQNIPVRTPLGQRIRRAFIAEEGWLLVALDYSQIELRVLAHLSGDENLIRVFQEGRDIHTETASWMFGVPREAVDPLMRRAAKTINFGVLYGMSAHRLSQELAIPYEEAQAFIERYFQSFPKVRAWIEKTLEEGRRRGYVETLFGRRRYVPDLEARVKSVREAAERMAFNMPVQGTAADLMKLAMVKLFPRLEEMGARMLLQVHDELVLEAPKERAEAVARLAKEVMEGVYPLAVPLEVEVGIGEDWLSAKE
# [2] = target: chimeric Taq 12-1 (Thermus aquaticus / environmental DNA chimera) (UniProt P19821); assay: EMSA; conditions: EMSA: 3 nM DNA, 20 mM Tris-HCl pH 8.8, 10 mM NaCl, 5 mM MgCl2, 14 mM 2-mercaptoethanol, 0.1 mg/ml BSA, 5% glycerol, 40 C, 5 min; 1% agarose gel
# chimeric Taq 12-1 (Thermus aquaticus / environmental DNA chimera), sequence (P19821 whole entry, change not shown): as above
# [3] = target: chimeric Taq 1-2 (Thermus aquaticus / environmental DNA chimera) (UniProt P19821); assay: EMSA; conditions: EMSA: 3 nM DNA, 20 mM Tris-HCl pH 8.8, 10 mM NaCl, 5 mM MgCl2, 14 mM 2-mercaptoethanol, 0.1 mg/ml BSA, 5% glycerol, 40 C, 5 min; 1% agarose gel
# chimeric Taq 1-2 (Thermus aquaticus / environmental DNA chimera), sequence (P19821 whole entry, change not shown): as above
# [4] = target: chimeric Taq 7-3 (Thermus aquaticus / environmental DNA chimera) (UniProt P19821); assay: EMSA; conditions: EMSA: 3 nM DNA, 20 mM Tris-HCl pH 8.8, 10 mM NaCl, 5 mM MgCl2, 14 mM 2-mercaptoethanol, 0.1 mg/ml BSA, 5% glycerol, 40 C, 5 min; 1% agarose gel
# chimeric Taq 7-3 (Thermus aquaticus / environmental DNA chimera), sequence (P19821 whole entry, change not shown): as above
# [5] = target: chimeric Taq 4-1 (Thermus aquaticus / environmental DNA chimera) (UniProt P19821); assay: EMSA; conditions: EMSA: 3 nM DNA, 20 mM Tris-HCl pH 8.8, 10 mM NaCl, 5 mM MgCl2, 14 mM 2-mercaptoethanol, 0.1 mg/ml BSA, 5% glycerol, 40 C, 5 min; 1% agarose gel
# chimeric Taq 4-1 (Thermus aquaticus / environmental DNA chimera), sequence (P19821 whole entry, change not shown): as above
# [6] = target: chimeric Taq 1-1 (Thermus aquaticus / environmental DNA chimera) (UniProt P19821); assay: EMSA; conditions: EMSA: 3 nM DNA, 20 mM Tris-HCl pH 8.8, 10 mM NaCl, 5 mM MgCl2, 14 mM 2-mercaptoethanol, 0.1 mg/ml BSA, 5% glycerol, 40 C, 5 min; 1% agarose gel
# chimeric Taq 1-1 (Thermus aquaticus / environmental DNA chimera), sequence (P19821 whole entry, change not shown): as above
# [7] = target: chimeric Taq 30-1 (Thermus aquaticus / environmental DNA chimera) (UniProt P19821); assay: EMSA; conditions: EMSA: 3 nM DNA, 20 mM Tris-HCl pH 8.8, 10 mM NaCl, 5 mM MgCl2, 14 mM 2-mercaptoethanol, 0.1 mg/ml BSA, 5% glycerol, 40 C, 5 min; 1% agarose gel
# chimeric Taq 30-1 (Thermus aquaticus / environmental DNA chimera), sequence (P19821 whole entry, change not shown): as above
# [8] = target: chimeric Taq 8-1 (Thermus aquaticus / environmental DNA chimera) (UniProt P19821); assay: EMSA; conditions: EMSA: 3 nM DNA, 20 mM Tris-HCl pH 8.8, 10 mM NaCl, 5 mM MgCl2, 14 mM 2-mercaptoethanol, 0.1 mg/ml BSA, 5% glycerol, 40 C, 5 min; 1% agarose gel
# chimeric Taq 8-1 (Thermus aquaticus / environmental DNA chimera), sequence (P19821 whole entry, change not shown): as above
# [9] = target: chimeric Taq 7-1 (Thermus aquaticus / environmental DNA chimera) (UniProt P19821); assay: EMSA; conditions: EMSA: 3 nM DNA, 20 mM Tris-HCl pH 8.8, 10 mM NaCl, 5 mM MgCl2, 14 mM 2-mercaptoethanol, 0.1 mg/ml BSA, 5% glycerol, 40 C, 5 min; 1% agarose gel
# chimeric Taq 7-1 (Thermus aquaticus / environmental DNA chimera), sequence (P19821 whole entry, change not shown): as above
# [10] = target: chimeric Taq 7-2 (Thermus aquaticus / environmental DNA chimera) (UniProt P19821); assay: EMSA; conditions: EMSA: 3 nM DNA, 20 mM Tris-HCl pH 8.8, 10 mM NaCl, 5 mM MgCl2, 14 mM 2-mercaptoethanol, 0.1 mg/ml BSA, 5% glycerol, 40 C, 5 min; 1% agarose gel
# chimeric Taq 7-2 (Thermus aquaticus / environmental DNA chimera), sequence (P19821 whole entry, change not shown): as above
# [11] = target: chimeric Taq 29-1 (Thermus aquaticus / environmental DNA chimera) (UniProt P19821); assay: EMSA; conditions: EMSA: 3 nM DNA, 20 mM Tris-HCl pH 8.8, 10 mM NaCl, 5 mM MgCl2, 14 mM 2-mercaptoethanol, 0.1 mg/ml BSA, 5% glycerol, 40 C, 5 min; 1% agarose gel
# chimeric Taq 29-1 (Thermus aquaticus / environmental DNA chimera), sequence (P19821 whole entry, change not shown): as above
# [12] = target: chimeric Taq 4-2 (Thermus aquaticus / environmental DNA chimera) (UniProt P19821); assay: EMSA; conditions: EMSA: 3 nM DNA, 20 mM Tris-HCl pH 8.8, 10 mM NaCl, 5 mM MgCl2, 14 mM 2-mercaptoethanol, 0.1 mg/ml BSA, 5% glycerol, 40 C, 5 min; 1% agarose gel
# chimeric Taq 4-2 (Thermus aquaticus / environmental DNA chimera), sequence (P19821 whole entry, change not shown): as above
# [13] = target: chimeric Taq 8-2 (Thermus aquaticus / environmental DNA chimera) (UniProt P19821); assay: EMSA; conditions: EMSA: 3 nM DNA, 20 mM Tris-HCl pH 8.8, 10 mM NaCl, 5 mM MgCl2, 14 mM 2-mercaptoethanol, 0.1 mg/ml BSA, 5% glycerol, 40 C, 5 min; 1% agarose gel
# chimeric Taq 8-2 (Thermus aquaticus / environmental DNA chimera), sequence (P19821 whole entry, stated change not applied): as the sequence (P19821 whole entry, change not shown) above
# [14] = target: TaqER (Thermus aquaticus, UniProt P19821 1-832, A743R); assay: EMSA; 5 mM Mg2+; apparent Kd; EMSA: 3 nM DNA, 20 mM Tris-HCl pH 8.8, 10 mM NaCl, 5 mM MgCl2, 14 mM 2-mercaptoethanol, 0.1 mg/ml BSA, 5% glycerol, 40 C, 5 min; 1% agarose gel; conditions: protein: recombinant; label: 32P on 27mer; primer-template; 27 bp duplex, 5' overhang 22 nt on the 49mer template
# TaqER, sequence (P19821 whole entry A743R): as the sequence (P19821 whole entry, change not shown) above, with A743R counted along it
# [15] = target: TaqEH (Thermus aquaticus, UniProt P19821 1-832, A743H); assay: as above; conditions: protein: recombinant; label: 32P on 27mer; primer-template; 27 bp duplex, 5' overhang 22 nt on the 49mer template
# TaqEH, sequence (P19821 whole entry A743H): as the sequence (P19821 whole entry, change not shown) above, with A743H counted along it
# [16] = target: TaqAA (Thermus aquaticus, UniProt P19821 1-832, E742A); assay: as above; conditions: protein: recombinant; label: 32P on 27mer; primer-template; 27 bp duplex, 5' overhang 22 nt on the 49mer template
# TaqAA, sequence (P19821 whole entry E742A): as the sequence (P19821 whole entry, change not shown) above, with E742A counted along it
# [17] = target: TaqQY (Thermus aquaticus, UniProt P19821 1-832, E742Q;A743Y); assay: as above; conditions: protein: recombinant; label: 32P on 27mer; primer-template; 27 bp duplex, 5' overhang 22 nt on the 49mer template
# TaqQY, sequence (P19821 whole entry E742Q/A743Y): as the sequence (P19821 whole entry, change not shown) above, with E742Q, A743Y counted along it
# [18] = target: TaqRK (Thermus aquaticus, UniProt P19821 1-832, E742R;A743K); assay: as above; conditions: protein: recombinant; label: 32P on 27mer; primer-template; 27 bp duplex, 5' overhang 22 nt on the 49mer template
# TaqRK, sequence (P19821 whole entry E742R/A743K): as the sequence (P19821 whole entry, change not shown) above, with E742R, A743K counted along it
# [19] = target: TaqHA (Thermus aquaticus, UniProt P19821 1-832, E742H); assay: as above; conditions: protein: recombinant; label: 32P on 27mer; primer-template; 27 bp duplex, 5' overhang 22 nt on the 49mer template
# TaqHA, sequence (P19821 whole entry E742H): as the sequence (P19821 whole entry, change not shown) above, with E742H counted along it
# [20] = target: TaqHK (Thermus aquaticus, UniProt P19821 1-832, E742H;A743K); assay: as above; conditions: protein: recombinant; label: 32P on 27mer; primer-template; 27 bp duplex, 5' overhang 22 nt on the 49mer template
# TaqHK, sequence (P19821 whole entry E742H/A743K): as the sequence (P19821 whole entry, change not shown) above, with E742H, A743K counted along it
# [21] = target: TaqKR (Thermus aquaticus, UniProt P19821 1-832, E742K;A743R); assay: as above; conditions: protein: recombinant; label: 32P on 27mer; primer-template; 27 bp duplex, 5' overhang 22 nt on the 49mer template
# TaqKR, sequence (P19821 whole entry E742K/A743R): as the sequence (P19821 whole entry, change not shown) above, with E742K, A743R counted along it
# [22] = target: TaqAH (Thermus aquaticus, UniProt P19821 1-832, E742A;A743H); assay: as above; conditions: protein: recombinant; label: 32P on 27mer; primer-template; 27 bp duplex, 5' overhang 22 nt on the 49mer template
# TaqAH, sequence (P19821 whole entry E742A/A743H): as the sequence (P19821 whole entry, change not shown) above, with E742A, A743H counted along it
# [23] = target: TaqRA (Thermus aquaticus, UniProt P19821 1-832, E742R); assay: as above; conditions: protein: recombinant; label: 32P on 27mer; primer-template; 27 bp duplex, 5' overhang 22 nt on the 49mer template
# TaqRA, sequence (P19821 whole entry E742R): as the sequence (P19821 whole entry, change not shown) above, with E742R counted along it
# [24] = target: Taq DNA polymerase WT (TaqEA) (Thermus aquaticus, UniProt P19821 1-832); assay: as above; conditions: protein: recombinant; label: 32P on 27mer; primer-template; 27 bp duplex, 5' overhang 22 nt on the 49mer template
# Taq DNA polymerase WT (TaqEA), sequence (P19821 whole entry): as the sequence (P19821 whole entry, change not shown) above
# [25] = target: TaqRR (Thermus aquaticus, UniProt P19821 1-832, E742R;A743R); assay: as above; conditions: protein: recombinant; label: 32P on 27mer; primer-template; 27 bp duplex, 5' overhang 22 nt on the 49mer template
# TaqRR, sequence (P19821 whole entry E742R/A743R): as the sequence (P19821 whole entry, change not shown) above, with E742R, A743R counted along it
# [26] = target: TaqHH (Thermus aquaticus, UniProt P19821 1-832, E742H;A743H); assay: as above; conditions: protein: recombinant; label: 32P on 27mer; primer-template; 27 bp duplex, 5' overhang 22 nt on the 49mer template
# TaqHH, sequence (P19821 whole entry E742H/A743H): as the sequence (P19821 whole entry, change not shown) above, with E742H, A743H counted along it
# [27] = target: TaqAR (Thermus aquaticus, UniProt P19821 1-832, E742A;A743R); assay: as above; conditions: protein: recombinant; label: 32P on 27mer; primer-template; 27 bp duplex, 5' overhang 22 nt on the 49mer template
# TaqAR, sequence (P19821 whole entry E742A/A743R): as the sequence (P19821 whole entry, change not shown) above, with E742A, A743R counted along it
# [28] = target: TaqKK (Thermus aquaticus, UniProt P19821 1-832, E742K;A743K); assay: as above; conditions: protein: recombinant; label: 32P on 27mer; primer-template; 27 bp duplex, 5' overhang 22 nt on the 49mer template
# TaqKK, sequence (P19821 whole entry E742K/A743K): as the sequence (P19821 whole entry, change not shown) above, with E742K, A743K counted along it
molecule,measurement,setting,value
AGCTATGACCATGATTACGAATTGCTT / AGCTACCATGCCTGCACGAATTAAGCAATTCGTAATCATGGTCATAGCT [primed DNA (27mer/49mer)],Kd,[1],4 nM
same,Kd,[2],7 nM
same,Kd,[3],5 nM
same,Kd,[4],4 nM
same,Kd,[5],4 nM
same,Kd,[6],6 nM
same,Kd,[7],8 nM
same,Kd,[8],10 nM
same,Kd,[9],10 nM
same,Kd,[10],5 nM
same,Kd,[11],10 nM
same,Kd,[12],4 nM
same,Kd,[13],20 nM
B1,Kd,[14],8 nM
same,Kd,[15],6 nM
same,Kd,[16],9 nM
same,Kd,[17],10 nM
same,Kd,[18],10 nM
same,Kd,[19],6 nM
same,Kd,[20],6 nM
same,Kd,[21],10 nM
same,Kd,[22],6 nM
same,Kd,[23],8 nM
same,Kd,[24],400 nM
same,Kd,[25],9 nM
same,Kd,[26],6 nM
same,Kd,[27],8 nM
same,Kd,[28],10 nM
